Source: publication PMC8892257

Molecular target: Orai1-GFP (UniProt Q96D31)
Assay: FRET or BRET

UniProt Q96D31, sequence (Q96D31 whole entry): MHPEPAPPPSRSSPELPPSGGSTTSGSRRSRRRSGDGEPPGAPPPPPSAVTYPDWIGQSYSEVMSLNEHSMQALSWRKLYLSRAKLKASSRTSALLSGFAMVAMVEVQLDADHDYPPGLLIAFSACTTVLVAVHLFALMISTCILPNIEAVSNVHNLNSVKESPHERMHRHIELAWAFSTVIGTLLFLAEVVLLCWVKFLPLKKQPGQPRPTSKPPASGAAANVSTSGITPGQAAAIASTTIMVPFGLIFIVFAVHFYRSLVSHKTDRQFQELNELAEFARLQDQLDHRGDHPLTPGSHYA

In the case of STIM1A-mCherry (natural protein), the FRET efficiency (E-FRET) is reported as 0.26.
